Laboratory results from patent US5534410, “TATA-binding protein associated factors drug screens” (The Regents of the University of California, dated 1996).

What was measured:
[1] = target: acidic activation domain of GAL4 (residues 768-881) (Saccharomyces cerevisiae (strain ATCC …, UniProt P04386)); assay: yeast two-hybrid
[2] = target: T1, Drosophila TATA-binding protein (dTBP) (Drosophila, UniProt P20227); assay: coimmunoprecipitation of in vitro expressed proteins
T1 sequence: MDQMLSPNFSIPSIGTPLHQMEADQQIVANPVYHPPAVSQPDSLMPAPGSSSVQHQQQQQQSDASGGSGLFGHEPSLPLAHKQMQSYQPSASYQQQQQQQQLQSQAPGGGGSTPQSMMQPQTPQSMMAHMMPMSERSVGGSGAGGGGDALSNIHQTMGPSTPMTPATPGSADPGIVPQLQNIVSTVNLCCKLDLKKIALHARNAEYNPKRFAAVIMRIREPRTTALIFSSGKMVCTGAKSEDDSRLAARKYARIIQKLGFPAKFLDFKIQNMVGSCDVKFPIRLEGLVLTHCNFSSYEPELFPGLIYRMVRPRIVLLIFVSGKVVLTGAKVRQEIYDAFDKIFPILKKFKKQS

[3] = target: control resin that lacked Sp1 (streptavidin-agarose with biotinylated oligonucleotides) (Streptomyces avidinii, UniProt P22629); assay: 35S-TAF110 on control DNA affinity resin, SDS-PAGE, autoradiography
[4] = target: T2, GST-NTF-1 fusion protein containing the N-terminal 284 amino acids of NTF-1 (Drosophila, UniProt P13002); assay: GST-NTF-1 fusion binding assay
T2 sequence: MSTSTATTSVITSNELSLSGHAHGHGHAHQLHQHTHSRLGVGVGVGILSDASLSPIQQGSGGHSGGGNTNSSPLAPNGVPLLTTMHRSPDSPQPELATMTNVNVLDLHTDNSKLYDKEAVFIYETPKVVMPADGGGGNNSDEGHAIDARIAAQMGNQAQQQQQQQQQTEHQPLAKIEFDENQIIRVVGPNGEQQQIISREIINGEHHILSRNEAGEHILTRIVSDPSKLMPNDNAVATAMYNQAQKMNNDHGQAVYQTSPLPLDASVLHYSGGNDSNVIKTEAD

radiolabeled nTBP = radiolabeled nTBP (Homo sapiens (Human), UniProt P20226); assay: Far Western with radiolabeled probe
[5] = target: human TATA-binding protein (hTBP) (human, UniProt P20226); assay: Far Western of immunoprecipitated hTFIID complex with 35S-labeled hTBP
[6] = target: Sp1, over-expressed and purified from HeLa cells infected with a vaccinia virus expression vector (Homo sapiens (Human), UniProt P08047); assay: in vitro binding to DNA-bound Sp1 resin

B1: G4-110 (fl): full-length TAF110 fused to the DNA binding domain of GAL4, G4(1-147) (other)
chain: MNTSQTAAGNRITFTSQPLPNGTISIAGNPGAVISTAQLPNTTTIKTIQAGIGGQHQGLQQVHHVQQQQQSQQQQQQQQQTQSAGQPLLNSMLPAGVVVGMRQQAPSQQQQKNVPTNPLSRVVINSHMAGVRPQSPSITLSTLNTGQTPALLVKTDNGFQLLRVGTTTGPPTVTQTITNTSNNSNTTSTTNHPTTTQIRLQTVPAAASMTNTTATSNIIVNSVASSGYANSSQPPHLTQLNAQAPQLPQITQIQTIPAQQSQQQQVNNVSSAGGTATAVSSTTAATTTQQGNTKEKCRKFLANLIELSTREPKPVEKNVRTLIQELVNANVEPEEFCDRLERLLNASPQPCLIGFLKKSLPLLRQALYTKELVIEGIKPPPQHVLGLAGLSQQLPKIQAQIRPIGPSQTTTIGQTQVRMITPNALGTPRPTIGHTTISKQPPNIRLPTAPRLVNTGGIRTQIPSLQVPGQANIVQIRGPQHAQLQRTGSVQIRATTRPPNSVPTANKLTAVKVGQTQIKAITPSLHPPSLAAISGGPPPTPTLSVLSTLNSASTTTLPIPSLPTVHLPPEALRAREQMQNSLNHNSNHFDAKLVEIKAPSLHPPHMERINASLTPIGAKTMARPPPAINKAIGKKKRDAMEMDAKLNTSSGGAASAANSFFQQSSMSSMYGDDDINDVAAMGGVNLAEESQRILGCTENIGTQIRSCKDEVFLNLPSLQARIRAITSEAGLDEPSQDVAVLISHACQERLKNIVEKLAVIAEHRIDVIKLDPRYEPAKDVRGQIKFLEELDKAEQKRHEELEREMLLRAAKSRSRVEDPEQAKMKARAKEMQRAEMEELRQRDANLTALQAIGPRKKLKLDGETVSSGAGSSGGGVLSSSGSAPTTLRPRIKRVNLRDMLFYMEQEREFCRSSMLFKTYLK
B1: no binding [1].

B2: Drosophila TAF110 (dTAFII110), full-length (other)
chain: B1 chain
B2: no binding [2]; no binding [3].

B3: dTAFII80 (other)
chain: MSLEVSNINGGNGTQLSHDKRELLCLLKLIKKYQLKSTEELLCQEANVSSVELSEISESDVQQVLGAVLGAGDANRERKHVQSPAQGHKQSAVTEANAAEELAKFIDDDSFDAQHYEQAYKELRTFVEDSLDIYKHELSMVLYPILVQIYFKILASGLREKAKEFIEKYKCDLDGYYIEGLFNLLLLSKPEELLENDLVVAMEQDKFVIRMSRDSHSLFKRHIQDRRQEVVADIVSKYLHFDTYEGMARNKLQCVATAGSHLGEAKRQDNKMRVYYGLLKEVDFQTLTTPAPAPEEEDDDPDAPDRPKKKKPKKDPLLSKKSKSDPNAPSIDRIPLPELKDSDKLLKLKALREASKRLALSKDQLPSAVFYTVLNSHQGVTCAEISDDSTMLACGFGDSSVRIWSLTPAKLRTLKDADSLRELDKESADINVRMLDDRSGEVTRSLMGHTGPVYRCAFAPEMNLLLSCSEDSTIRLWSLLTWSCVVTYRGHVYPVWDVRFAPHGYYFVSCSYDKTARLWATDSNQALRVFVGHLSDVDCVQFHPNSNYVATGSSDRTVRLWDNMTGQSVRLMTGHKGSVSSLAFSACGRYLASGSVDHNIIIWDLSNGSLVTTLLRHTSTVTTITFSRDGTVLAAAGLDNNLTLWDFHKVTEDYISNHITVSHHQDENDEDVYLMRTFPSKNSPFVSLHFTRRNLLMCVGLFKS
B3: no binding [4].

B4: dTAFII40 (other)
chain: MSAEKSDKAKISAQIKHVPKDAQVIMSILKELNVQEYEPRVVNQLLEFTFRYVTCILDDAKVYANHARKKTIDLDDVRLATEVTLDKSFTGPLERHVLAKVADVRNSMPLPPIKPHCGLRLPPDRYCLTGVNYKLRATNQPKKMTKSAVEGRPLKTVVKPVSSANGPKRPHSVVAKQQVVTIPKPVIKFTTTTTTKTVGSSGGSGGGGGQEVKSESTGAGGDLKMEVDSDAAAVGSIAGASGSGAGSASGGGGGGGSSGVGVAVKREREEEEFEFVTN
B4: no binding [4].

B5: hTAFII250 (other)
chain: MGPGCDLLLRTAATITAAAIMSDTDSDEDSAGGGPFSLAGFLFGNINGAGQLEGESVLDDECKKHLAGLGALGLGSLITELTANEELTGTDGALVNDEGWVRSTEDAVDYSDINEVAEDESRRYQQTMGSLQPLCHSDYDEDDYDADCEDIDCKLMPPPPPPPGPMKKDKDQDSITGVSENGEGIILPSIIAPSSLASEKVDFSSSSDSESEMGPQEATQAESEDGKLTLPLAGIMQHDATKLLPSVTELFPEFRPGKVLRFLRLFGPGKNVPSVWRSARRKRKKKHRELIQEEQIQEVECSVESEVSQKSLWNYDYAPPPPPEQCLSDDEITMMAPVESKFSQSTGDIDKVTDTKPRVAEWRYGPARLWYDMLGVPEDGSGFDYGFKLRKTEHEPVIKSRMIEEFRKLEENNGTDLLADENFLMVTQLHWEDDIIWDGEDVKHKGTKPQRASLAGWLPSSMTRNAMAYNVQQGFAATLDDDKPWYSIFPIDNEDLVYGRWEDNIIWDAQAMPRLLEPPVLTLDPNDENLILEIPDEKEEATSNSPSKESKKESSLKKSRILLGKTGVIKEEPQQNMSQPEVKDPWNLSNDEYYYPKQQGLRGTFGGNIIQHSIPAVELRQPFFPTHMGPIKLRQFHRPPLKKYSFGALSQPGPHSVQPLLKHIKKKAKMREQERQASGGGEMFFMRTPQDLTGKDGDLILAEYSEENGPLMMQVGMATKIKNYYKRKPGKDPGAPDCKYGETVYCHTSPFLGSLHPGQLLQAFENNLFRAPIYLHKMPETDFLIIRTRQGYYIRELVDIFVVGQQCPLFEVPGPNSKRANTHIRDFLQVFIYRLFWKSKDRPRRIRMEDIKKAFPSHSESSIRKRLKLCADFKRTGMDSNWWVLKSDFRLPTEEEIRAMVSPEQCCAYYSMIAAEQRLKDAGYGEKSFFAPEEENEEDFQMKIDDEVRTAPWNTTRAFIAAMKGKCLLEVTGVADPTGCGEGFSYVKIPNKPTQQKDDKEPQPVKKTVTGTDADLRRLSLKNAKQLLRKFGVPEEEIKKLSRWEVIDVVRTMSTEQARSGEGPMSKFARGSRFSVAEHQERYKEECQRIFDLQNKVLSSTEVLSTDTDSSSAEDSDFEEMGKNIENMLQNKKTSSQLSREREEQERKELQRMLLAAGSAASGNNHRDDDTASVTSLNSSATGRCLKIYRTFRDEEGKEYVRCETVRKPAVIDAYVRIRTTKDEEFIRKFALFDEQHREEMRKERRRIQEQLRRLKRNQEKEKLKGPPEKKPKKMKERPDLKLKCGACGAIGHMRTNKFCPLYYQTNAPPSNPVAMTEEQEEELEKTVIHNDNEELIKVEGTKIVLGKQLIESADEVRRKSLVLKFPKQQLPPKKKRRVGTTVHCDYLNRPHKSIHRRRTDPMVTLSSILESIINDMRDLPNTYPFHTPVNAKVVKDYYKIITRPMDLQTLRENVRKRLYPSREEFREHLELIVKNSATYNGPKHSLTQISQSMLDLCDEKLKEKEDKLARLEKAINPLLDDDDQVAFSFILDNIVTQKMMAVPDSWPFHHPVNKKFVPDYYKVIVNPMDLETIRKNISKHKYQSRESFLDDVNLILANSVKYNGPESQYTKTAQEIVNVCYQTLTEYDEHLTQLEKDICTAKEAALEEAELESLDPMTPGPYTPQPPDLYDTNTSLSMSRDASVFQDESNMSVLDIPSATPEKQVTQEGEDGDGDLADEEEGTVQQPQASVLYEDLLMSEGEDDEEDAGSDEEGDNPFSAIQLSESGSDSDVGSGGIRPKQPRMLQENTRMDMENEESMMSYEGDGGEASHGLEDSNISYGSYEEPDPKSNTQDTSFSSIGGYEVSEEEEDEEEEEQRSGPSVLSQVHLSEDEEDSEDFHSIAGDSDLDSDE
B5: no binding (radiolabeled nTBP); binds [5].

B6: TAF110 deletion mutant 1-137 (other)
chain: MNTSQTAAGNRITFTSQPLPNGTISIAGNPGAVISTAQLPNTTTIKTIQAGIGGQHQGLQQVHHVQQQQQSQQQQQQQQQTQSAGQPLLNSMLPAGVVVGMRQQAPSQQQQKNVPTNPLSRVVINSHMAGVRPQSPS
B6: no binding [6].
